Laboratory results taken from a protein production outcome set (Wang et al. 2014).

Assay: label from the status in PepcDB records

| Sequence | protein production |
| --- | --- |
| MRGKHIFIITALISILMLAACGQKNSSATVATATDSTITKSDFEKQLKDRYGKDMLYEMIAQDVITKKYKVSDDDVDKEVQKAKSQYGDQFKNVLKNNGLKDEADFKNQIKFKLSMNKAIKQSVTEKDVKDHYKPEIKASHILVSDENEAKEIKKKLDTGASFEELAKQESQDLLSKEKGGDLGYFHSGAMTPEFETAAYKLKIGQISDPVQSPNGYHIIKLTGKKDLKPYDEVKNSIRKNLEEERTADPIFGKKLLQSELKKANIKINDSELEDTFTIVSPQGN | failed |
| MNLAVTVLEIVAPVFLLAAVGFGWVRMGFEYRLQFVTRLGTMLAVPCLIFVALMKTEIPGGDLSRFTLASALAILALTVVFGLIVRFSGLDRRTYLPPLLFGNTGNLGLPLCMFAFGIEGLSYAVVFFSLSALWSFSYGIHVVAGQGSLSKVVREPMVWATLLGALFLSQDWQTPRFLTNALELIGQMAVPLMLITLGVAMARLSIRRIGQALGLSLLKLAICFPVGWLVAQGFGLSGPALGVLVVQMSVPAAVSAYLLAERFGADADAVAGMVMVSTLLAVGALPLVLAAVL | failed |
| MAGGTKRLPRAVREQQMLDAAVDVFSDRGFHETSMDAIAAKAEISKPMLYLYYGSKDELFAACIQREGLRFVEALAPAGDPGLSPREQLRRALEGFLGFVGKHRKSWMVLYRQAMGQQAFVGSVQSSRDRLIELTAHLLESSTKDPEPGQDFELIAIALVGAGEAVADRVAGGEIEVDAAADLLESLAWRGLAGKKKPE | not failed |
| MKSLETMARYKKELTECARNLKLPFLAEHLDEILHEAQEKQQTYSEFLSTCLMRELRDKERRSYLTRLKFAGLPARYDLDLYDFSRTEGIDQRQMRELRELVWIRRTYNLLLVGDSGTGKTFIASGLIHEAVKAGYKAYLLTLEELFVCLKTKEISRPAMKTYKRIMKAQLLAIDDVTLFPLKGEDVLLLFKLVNCVQGKTSLIITASRDLTGWLEMAGDEVCAAALLDRLLYCCEIIRLSGKSYRMENRKTIFSNQQIGTASLEHHHHHH | failed |
| MECRECTNRNKLDFEFTMAFQPIVNLETQTIFAHEALVRGLNNESAQAIFQHINDSNRYLFDQSCRTTAIRLAAELHIPCFLSINFLPNAVYEPERCIRTTLEAAETYGFPIEQIIFEITESEQITDLVHLRKIVEYYRARGFKTAIDDFGAGYAGLNLLSEIQTDLIKLDMALIRGIDQDKVRQAIVKGVLQVAGELSSLVIAEGIETQAELTTLQGLGINLFQGFYFAKPTFQSLAQIPSDRFVNVA | failed |
| MQDSLGIMIKKANNALARDSDHYAKSLGLTGMQISTINFIANNEQHHDLFQRDLELEFNIRKATCSSLVSKMEAADLLIRVPAKDDGRYKRLLLTPKARQLATKIERFFETSEQRMATILGVNTAETYEALRQIAVAFSTPTHAPENWY | failed |
| MRLNGDVGWLWDWLAAAGLEPRALGEAAVLCALKRRLDAAGCTAAAYPARLAADAEERARLLDAVLVPETWFFREPPAFEALAESAARHRLQRRSVPFHVLSLGCSTGEEPWSIVIALREAGMRKGDFRVEALDISARAIEAARAGIYGGRSFRSPGDGTWRSRYFDELGDGRYRVKDGLRGDVEYRVAHLGDPGWGGGRRYQAVFCRNVLIYLRAELRARIMDQCRDALDPGGLLVLGHADGIGGPDRGFRRHGVAGAFSWIRRDAAEAEPPPARSSRPLAAKAVRRDAPGEAKPSGPDLLSGGRETGRAAPFDEGAVLGTARALADGGNYQAAERLCQSHLASHPHDPEVHALLGIVMSAANRDDEALRYFRQALYLAPSHNESLLHLAALYERRGDEERARHFRNRSAAAEGEP | failed |
| MEGGYKLNITKAIVVAIYIIVGAALGVIIIPEVVTDLGIHHHAVITNYYVDGFIGIIIFFIIFGLFINKVTYAFKQFEQLIMRRSAVEILFATIGLIIGLFISVMVSFILEMIGNSILNHFVPMIITIILCYLGFQFGLKKRDEMLMFLPENMARSMSNNIRRATPKIVDTSAIIDGRILDIIRCGFIDGDILIPQGVINELQVIADAKDSVKREKGQRGLDILNQLYDLDYPTRVIHPTQSHSDIDTLLIKLAQQYHAHVITTDFNLNKVCHVQGITALNVNDLSEAIKPNVHQGDQLSILLTKIGKEPGQGVGYLDDGTMVVVDNAKSYIGQQVNLEVVSLLQTSSGRIVFAKFVD | failed |
| MSLQTKILIIDGDKDNCQKLKGFLEEKGISIDLAYNCEEAIGKIFSNKYDLIFLEIILSDGDGWTLCKKIRNVTTCPIVYMTYINEDQSILNALNSGGDDYLIKPLNLEILYAKVKAILRRMNSYVNNEGHHHHHH | not failed |
| MKSTAEDLINGEISSVGVYLYNKLKNYVFEKESSEKTAIRKADFGKIIEEKTDLEEFPAVSKEDIKAICEILYNSKDIEIIIKQLYVFQSDINKSLDEIKEDFVSLFPKTINLENGRINLETGERISFLLKIFEVLDEGIQTALNRAVDEGSSGASNALSNRRHFDMKNKLANGFKEVKKLINESSRAVQEKKIPTEKLPSLFISYAREDDEPFVEKLYQGLKEKGFEIWWDRTAMKNRGRTFLQEIRDAIEDSDLLIAVIGPKAIESDSVRYEWEHALLFSKGVIPVLRMGDYNLLLPEMSKLHCPDFREKRPYEEALEELIRLLKEPIPSLGPIIGIPSLPPNHLPRKNDLNIIKEIILADTVKPVVITSTKQVTALQGMGGMGKSVLSAAFARSAETRRAFYDGIFWITVGLEASESDASGNMRLIGTNLGDDPVNYSSKKEAEASLSKMLSDKVCLIILDDVWKVPQATPFFNALGSRCRLLITTRNDDVVTSLGAQKHEIKVLGKPEALKLLANWCEQEIDSLTSKAAEVARECGYLPLALSICGAMAKSGISWTYILEALQEADLEFIEAQLPNYPDPNVGRALKVSVDFLSLEDPNAVMRYQELVIFPEDELVPETTIAMLWEHTGNLKRRNVEKLLTKLKDRSLLRLDGEAPNRLISLHDLQLDYLRATVGDLTSLHNKLLAAYGKECGNKWSNGSEDGYFFEHLAYHMKEAGRREELHKLLLDFEWMCKKIKCVRLMQEKDGKGIPDLNSLLHDYEFLSNEPKIELVKEAIQLSFDIIAKDEAQFSGQLIGRLQVFNQNEEIRLLLDQATQWKEEDVRLIPLQPCLKPPGGSLKRTFKAHAHPINDVVITSNGKVAISASTDKTIRIWDLNEWIEKGTLKGHLTPVTAIAVSLDGKYAASCSYHIMCLIGDNNIKVWDLEKREEKTTLKGHTHWVQTVAITPDGKYIVSGSLDKTIKFGI | failed |
| MTILDRLTGLAFPAAVLRRAIKLADSGKAAEAFPLMAKAARAGIVDAEYRVARCYLEGAGVPPSRMEGARWLLRAADHGSADAQALLAALYVTGLVTSEADGKGPSEHLFKPDSAGKPDFTAAFDFATKAAEAGSATGQAILGYILTSGPASMRDADAAHRWYEKSASAGCAEGCLGFALSLARRGKRENRVRIAEEVRRAADAGLPTATYLLAVLTEHGLGVARDMAAAAQLYQAAAEKGLPSAQFRLGLALIDGALVGQDVAAGEAWMRRAALAGNIEAAYLLGDRHAKTQRPDFAEAANWYRRAAEAGHQAAARALASLYLTGNGVAEDVEEGARWLRSSASAGNQQAQTDLANLILGGAGEPDDGASVAGWFEAAASSGDLIAAFNLGLCFAKGVGVRQDEGQAAHWLRRAAEGVAEAQYMYARLLQDGRGVAADPTQARVWFARAADAGVLDARVALAEMLLNGRGGMPEPEAAMQLFEQAAADGHAGAMFAIGALYGAGHGLPLDQTTAQKWYAAAAGRGHSQAQFMLGRYLLKGLAGERDPVAARLWLERAAAHGISEAADELGAAGGSD | failed |
| SADSEADKPLRKISAAFKKLAIIVNSPNPEVPVTQFSHACSLVSPLFGCLGIAFKFAEMDYVAKVDDLVRASSSISTLVVMMDKDIEADCVRKAGSHTRNLLRVKRGLDMVKVLFEQIIASEGDNSLKDPATKSYAQVFAPHHGWAIRKAVSLGMYALPTRAHLLNMLKEDEAAAKIHMQSYVNSSAPLITYLDNLFLSKQLGIDW | failed |
| AQNQDCAFFFPNQEGEQITRNCYTADGKLTNILVYRVDQAYEYPSGMEVVANYTFADAAGKTLNSGQMVARCSDGNFSMSMGDVATFPTALNMMNADVYMMGDLMNYPDAFSNPMNPGDDDEFDDGTLRLYQKGNKNNRAEISVFDREFVTTETVNTPAGAFYCTKVKYEMNIWTPKETIKGYGYEWYAPNIGIVRSEQYNNKKELQSYSVLERIKK | not failed |
| DSLGREAKCYNELNGCTKIYDPVCGTDGNTYPNECVLCFENRKRQTSILIQKSGPC | failed |
| NSNTLSQIQLNEQSCLSQVVNNLYRLHNSEFVFRNVFSVFDEFRQYFSLLENKSAFYQADSRMDKLSAVFWQFEEINKEVILRPCHNDLVPENMLLQDDRLFFIDWEYSGLNDPLFDIATIIEEAHLSKEAADFLLETYCNQTNKYHKTEFQIAHKRLKIHRFCQNVLWFLWTKVKEEHGENFGDYALKRLDAAFKLLEELP | failed |
| MAILSYISATSTTPPIPQDQSPNSRLPTKIILPNKKPEKWSTGVAPGEYGGPPTTTKLRKYWGGEKEDPITSTDLIWNRDFMDQMKKLFDDPNDSSLDPSPSKEKSSGFLSFSRVMSLDSMDVDLSKELASSSKSVVKNRLDTSKSEAKKQMSKAIVSPKWKLAPTRREQEKWDRATKAATGGSDVMFRELRRPRGDPEVQAAKDREQYFKLKNKIQVLTLGIGGVGLVSAYISYTPEIALSFGAGLLGSLAYMRMLGNSVDAMADGARGVAKGAANQPRLLVPVVLVMIFNRWNAILVPEYGFMHLELIPMLVGFFTYKIATFFQAIEEAISITTQKPESISPDTQASD | not failed |
| MDEPVRTFPITWLADYVMEDEGFSSREDINDLLMKEGFPLEPDLFMLTEIARKGIIEVTSSRDYSPEYALFLNLTFRDGSALNSRKVKVAWSEVCSPKQEGGLGLRSIAEANKVCVLKLIWRILSARRSLWVELVKKYLIRRGSFWLVKENTTCGSWIWKKILKYRDTAKSFYRVEVRNGEASSFGFDRWSEMGCLYDRLGARGCIDLGSPMTATVGEVMAGARRRKYRVAILNQVENEIVKQKLIRSNETDVALWNGKHDHYRKEFHTKETWLQIRTAKLLMENYNGIWFKHSTPKYSLITWLVQKNRVATGDKLIKWNPQVTPNCILCQHTLETWDHLFFMCPYSFQVWTKLAKGILHASFTANWTETLKLIHDNRLSKTKCFIVGYIFQNAIHSL | failed |
| MEKAILITFLIATTSMVYQTIGQEEEISPISPESLAYEPAAAYEYDHELLSHMTTRRIKFLQDCSDKMSSKCNVEMTEGLIDDKPVSEDCCVNFLKIGRECHEGLMTFVFATYELKDVASAILPRSKRMWNKCVETTAAKIGAPLAFET | failed |
| MVINLNDKQTKTSKEGLISVSHPLAAKIGKDVLDQGGNAMDAVIAIQLALNVVEPFASGIGGGGYLLYYEQSTGSITAFDARETAPEHVDKQFYLDDSGEYKSFFDMTTHGKTVAVPAIPKLFDYIHKRYAKLSLEDLINPAIELAIEGHAANWATEKYSRQQHARLTKYHETAQVFTHENQYWREGDWIVQPELGKTFQILREQGFNAFYKGDIAKQLVNVVKACGGTITLEDLAKYDIQIKAPISATFKDYDIYSMGPSSSGGITVIQILKLLEHVDLPSMGPRSVDYLHHLIQAMHLAYSDRAQYLADDNFHEVPVQSLIDDDYLKARSTLIDSNKANIDIEHGVVSDCISHTDVEENHTETTHFCVIDKEGNIASFTTSIGMIYGSGITIPGYGVLLNTTMDGFDVVDGGINEIAPYKRPLSNMAPTIVMYHGKPILTVGAPGAISIIASVAQTLINVLVFGMDIQQAIDEPRIYSSHPNRIEWEPQFSQSTILALIAHGHAMEHKPDAYIGDVHGLQVDPTTYEASGGSDDTREGTVMGGEVLVIRKQPLPYRQMYDSDGFRLYFNDVQLPLLADQVRWMHDKYWVDESVVRIIFPEVSAHIEDLRSYENAGENYIDIAWLARKYAYQVTLKDDGLYLTDDTYTSVKRNTNAYYRYDRDSITR | failed |
